Measurements as given in patent US20060270591A1 (published 2006).
One block for each binder: values may come before it.

Experiments:
[1] = biological target: T1, GAL4 DBD fused with C-terminal fragment (aa 595-918) of mARt877s (human, UniProt P04386 1-147 (Saccharomyces cerevisiae entry)); test: yeast two-hybrid screen of prostate cDNA library
T1 construct: range 1-147; Yeast two-hybrid bait; the text also writes t877a in places; also called pAS2-mtARt877s; mtARt877s

[2] = biological target: T2, GAL4 DBD fused with C-terminal fragment (aa 595-918) of wild-type AR (human, UniProt P04386 1-147 (Saccharomyces cerevisiae entry)); test: yeast two-hybrid
T2 construct: range 1-147; also called pAS2-AR; pAS2-wtAR

[3] = biological target: T3, androgen receptor (AR), full-length, human (human, UniProt P10275 1-920); test: cell-based or functional assay
T3 sequence: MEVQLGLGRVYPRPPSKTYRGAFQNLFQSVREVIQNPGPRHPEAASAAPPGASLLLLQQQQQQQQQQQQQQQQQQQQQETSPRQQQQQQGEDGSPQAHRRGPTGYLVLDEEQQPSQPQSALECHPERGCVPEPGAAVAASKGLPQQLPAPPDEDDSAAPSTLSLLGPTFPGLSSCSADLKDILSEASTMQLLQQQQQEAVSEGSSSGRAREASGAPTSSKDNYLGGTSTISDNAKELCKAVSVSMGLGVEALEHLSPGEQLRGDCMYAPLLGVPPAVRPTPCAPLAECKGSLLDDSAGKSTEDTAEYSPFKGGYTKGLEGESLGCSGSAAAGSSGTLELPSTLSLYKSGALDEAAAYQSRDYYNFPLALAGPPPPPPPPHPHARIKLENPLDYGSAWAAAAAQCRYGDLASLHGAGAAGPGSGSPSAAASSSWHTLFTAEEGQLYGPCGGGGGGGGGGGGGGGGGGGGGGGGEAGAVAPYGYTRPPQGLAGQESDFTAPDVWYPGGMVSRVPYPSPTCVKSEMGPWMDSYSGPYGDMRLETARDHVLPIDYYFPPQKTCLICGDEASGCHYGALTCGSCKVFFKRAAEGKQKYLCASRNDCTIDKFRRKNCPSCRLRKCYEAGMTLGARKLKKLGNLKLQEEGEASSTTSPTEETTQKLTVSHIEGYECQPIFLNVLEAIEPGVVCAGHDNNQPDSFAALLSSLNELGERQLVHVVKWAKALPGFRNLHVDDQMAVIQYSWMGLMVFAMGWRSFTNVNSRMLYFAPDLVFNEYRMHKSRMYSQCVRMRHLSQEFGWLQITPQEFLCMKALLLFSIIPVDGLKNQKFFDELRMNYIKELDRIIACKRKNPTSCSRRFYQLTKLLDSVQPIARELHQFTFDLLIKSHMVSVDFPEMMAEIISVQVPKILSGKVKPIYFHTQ

[4] = biological target: T4, AR-N (aa 36-553), in vitro translated (human, UniProt P10275 36-554, [35S]-methionine-labeled); test: GST pull-down
T4 construct: also called AR N-terminal
T4 sequence: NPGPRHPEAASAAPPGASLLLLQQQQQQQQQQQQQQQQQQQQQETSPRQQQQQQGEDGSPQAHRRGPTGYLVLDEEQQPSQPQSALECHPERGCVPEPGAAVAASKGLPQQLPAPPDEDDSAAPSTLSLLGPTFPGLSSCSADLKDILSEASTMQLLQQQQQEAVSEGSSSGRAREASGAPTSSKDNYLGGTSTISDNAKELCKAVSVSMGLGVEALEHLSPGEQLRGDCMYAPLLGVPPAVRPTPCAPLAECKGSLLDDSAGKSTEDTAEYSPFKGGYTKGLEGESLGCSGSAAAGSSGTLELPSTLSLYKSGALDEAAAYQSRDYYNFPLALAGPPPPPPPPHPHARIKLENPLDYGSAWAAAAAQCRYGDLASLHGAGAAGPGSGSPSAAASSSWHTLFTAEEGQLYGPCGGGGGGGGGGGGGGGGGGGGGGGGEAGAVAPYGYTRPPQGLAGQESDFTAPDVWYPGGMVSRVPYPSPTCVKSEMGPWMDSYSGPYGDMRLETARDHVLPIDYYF
Experimental: After several washes with NETN buffer [20 mM Tris/pH 8.0, 100 mM NaCl, 6 mM MgCL₂, 1.0 mM EDTA, 1.0 mM DTT, 0.5% (vol/vol) Nonidet P-40, 1 mM PMSF, and 8% glycerol], the bound proteins were separated on SDS-PAGE gel and visualized by PhosphorImager (Molecular Dynamics).
To confirm the interaction between ARA267 and AR that was shown in the yeast two-hybrid system, GST pull-down assay was applied to confirm and further map the interaction domains between ARA267 and AR.

- binding result [1]: binds
- binding result [2]: binds
B1: GAL4 AD fused C-terminal region of ARA54 (C'-ARA54, amino acids 361-474) (other)
chain: ANFNQSGNIADSSLSFTFTNSSNGPNLITTQTNSQALSQPIASSNVHDNFMNNEITASKIDDGNNSKPLSPGWTDQTAYNAFGITTGMFNTTTMDDVYNYLFDDEDTPPNPKKERNEYLQADEANKRLLDQRYGKRVIQKALEEMESKEWLEKNSKSCPCCGTPIEKLDGCNKMTCTGCMQYFCWICMGSLSRANPYKHFNDPGSPCFNRLFYAVDVDDDIWEDEVED
notes: range 768-881; Clone from the prostate cDNA library; also called pACT2-C'-ARA54

- AR transactivation (MMTV-LUC, COS-1, 10 nM T) [3]: 310 fold
B2: ARA70N (aa 1-401) with wild-type FXXLF, expressed from pSG5 (other)
chain: MNTFQDQSGSSSNREPLLRCSDARRDLELAIGGVLRAEQQIKDNLREVKAQIHSCISRHLECLRSREVWLYEQVDLIYQLKEETLQQQAQQLYSLLGQFNCLTHQLECTQNKDLANQVSVCLERLGSLTLKPEDSTVLLFEADTITLRQTITTFGSLKTIQIPEHLMAHASSANIGPFLEKRGCISMPEQKSASGIVAVPFSEWLLGSKPASGYQAPYIPSTDPQDWLTQKQTLENSQTSSRACNFFNNVGGNLKGLENWLLKSEKSSYQKCNSHSTTSSFSIEMEKVGDQELPDQDEMDLSDWLVTPQESHKLRKPENGSRETSEKFKLLFQSYNVNDWLVKTDSCTNCQGNQPKGVEIENLGNLKCLNDHLEAKKPLSTPSMVTEDWLVQNHQDPCKVE

- binding result [4]: no binding
B3: GST-ARA267N1 (ARA267 aa 1-382) (other, not shown: a dimerising Fc or GST)
chain: MPLKTRTALSDDPDSSTSTLGNMLELPGTSSSSTSQELPFCQPKKKSTPLKYEVGDLIWAKFKRRPWWPCRICSDPLINTHSKMKVSNRRPYRQYYVEAFGDPSERAWVAGKAIVMFEGRHQFEELPVLRRRGKQKEKGYRHKVPQKILSKWEASVGLAEQYDVPKGSKNRKCIPGSIKLDSEEDMPFEDCTNDPESEHDLLLNGCLKSLAFDSEHSADEKEKPCAKSRARKSSDNPKRTSVKKGHIQFEAHKDERRGKIPENLGLNFISGDISDTQASNELSRIANSLTGSNTAPGSFLFSSCGKNTAKKEFETSNGDSLLGLPEGALISKCSREKNKPQRSLVCGSKVKLCYIGAGDEEKRSDSISICTTSDDGSSDLDP
